# ± gives the uncertainty stated by the source.
# Assay: self-splicing fitness, log relative to wild type (ln ratio); higher = more splicing; Tetrahymena group I intron in knt gene, E. coli kanamycin selection, DiMSum; sequences stand for … in CUCUCU…GGAGGGAAAAGUUAUCAGGCAUGCACCUGGUAGCUAGUCUUUAAACCAAUAGAUUGCAUCGGUUUAAAAGGCAAGACCGUCAAAUUGCGGGAAAGGGGUCAACAGCCGUUCAGUACCAAGUCUCAGGGGAAACUUUGAGAUGGCCUUGCAAAGGGUAUGGUAAUAAGCUGACGGACAUGGUCCUAACCACGCAGCCAAGUCCUAAGUCAACAGAUCUUCUGUUGAUAUGGAUGCAGUUCACAGACUAAAUGUCGGUCGGGGAAGAUGUAUUCUUCUCAUAAGAUAUAGUCGGACCUCUCCUUAAUGGGAGCUAGCGGAUGAAGUGAUGCAACACUGGAGCCGCUGGGAACUAAUUUGUAUGCGAAAGUAUAUUGAUUAGUUUUGGAGUACUCGUGGUCG
# How it was run: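 Pooled colonies went to amplicon sequencing on an Illumina HiSeq 2500 after six replicate transformations. The plates were LB agar with 100 μg/mL carbenicillin, 50 μM IPTG and 0.2% rhamnose, with or without 25 μg/mL kanamycin, incubated overnight at 37°C or 30°C. The E. coli BL21(DE3) library had all eight P1ex-region intron nucleotides randomised, the intron placed in the knt kanamycin-resistance gene on pET-22b(+). DiMSum fitness is the error-weighted combination of replicate fold changes, kanamycin against none, normalised to wild type.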
Sequence,self-splicing fitness (ln) (30 °C),self-splicing fitness (ln) (37 °C)
GAUAAGCAAUAUUACGAGUA,-1.84 ± 0.15,-1.45 ± 0.14
GAUAAGCAAUAUUACGAGUG,-1.04 ± 0.074,-0.835 ± 0.066
GAUAAGCAAUAUUACGAUAU,-1.13 ± 0.095,-0.335 ± 0.15
GAUAAGCAAUAUUACGAUGU,-0.525 ± 0.082,-0.545 ± 0.1
GAUAAGCAAUAUUACGCAAC,,-0.343 ± 0.46
GAUAAGCAAUAUUACGCACC,-1.96 ± 0.16,-0.327 ± 0.2
GAUAAGCAAUAUUACGCCAU,-2.79 ± 0.21,-1.72 ± 0.17
GAUAAGCAAUAUUACGCUCA,-1 ± 0.07,0.0635 ± 0.097
GAUAAGCAAUAUUACGCUGC,-2.88 ± 0.23,-3.04 ± 0.3
GAUAAGCAAUAUUACGGAGU,-2.46 ± 0.16,-0.942 ± 0.14
GAUAAGCAAUAUUACGGCUA,-0.974 ± 0.12,0.143 ± 0.15
GAUAAGCAAUAUUACGGGGA,,-2.16 ± 0.23
GAUAAGCAAUAUUACGGUAG,-3.17 ± 0.23,-2.35 ± 0.27
GAUAAGCAAUAUUACGUCGU,-1.68 ± 0.072,-0.373 ± 0.086
GAUAAGCAAUAUUACGUCUC,-1.74 ± 0.085,-0.95 ± 0.1
GAUAAGCAAUAUUACGUCUU,-0.224 ± 0.069,0.135 ± 0.088
GAUCAGCAAUAUUACGAAAC,-0.961 ± 0.39,0.628 ± 0.41
GAUCAGCAAUAUUACGAAAG,-0.98 ± 0.14,-1.2 ± 0.24
GAUCAGCAAUAUUACGAAAU,-0.667 ± 0.081,0.175 ± 0.1
GAUCAGCAAUAUUACGAAGA,-0.925 ± 0.11,-0.0626 ± 0.11
GAUCAGCAAUAUUACGAAGG,-2.62 ± 0.13,-1.59 ± 0.14
GAUCAGCAAUAUUACGAGAU,-3 ± 0.15,-1.55 ± 0.13

Sequence,self-splicing fitness (ln) (30 °C),self-splicing fitness (ln) (37 °C)
GAUCAGCAAUAUUACGAUGC,-0.684 ± 0.12,0.0112 ± 0.12
GAUCAGCAAUAUUACGAUUC,-3.05 ± 0.38,-1.79 ± 0.27
GAUCAGCAAUAUUACGCACC,-0.91 ± 0.18,-0.086 ± 0.23
GAUCAGCAAUAUUACGCGAG,-0.684 ± 0.07,-1.15 ± 0.073
GAUCAGCAAUAUUACGCUGU,-3.03 ± 0.21,-2.38 ± 0.16
GAUCAGCAAUAUUACGGAAA,-1.01 ± 0.16,-0.212 ± 0.17
GAUCAGCAAUAUUACGGACU,-0.52 ± 0.12,-0.894 ± 0.13
GAUCAGCAAUAUUACGGGCU,-1.98 ± 0.085,-1.4 ± 0.1
GAUCAGCAAUAUUACGGGGG,-3.25 ± 0.18,-2.51 ± 0.18
GAUCAGCAAUAUUACGUCAC,-3.88 ± 0.2,-2.13 ± 0.15
GAUCAGCAAUAUUACGUCUG,-2.63 ± 0.11,-1.84 ± 0.1
GAUCAGCAAUAUUACGUGAG,-0.0667 ± 0.052,0.101 ± 0.074
GAUCAGCAAUAUUACGUUGC,-2.84 ± 0.27,-3.1 ± 0.31
GAUGAGCAAUAUUACGAGCA,-2.59 ± 0.37,
GAUGAGCAAUAUUACGAGUA,-3.4 ± 0.43,-1.92 ± 0.2
GAUGAGCAAUAUUACGAGUG,-3.06 ± 0.17,-0.833 ± 0.18
GAUGAGCAAUAUUACGAUAG,-3.33 ± 0.16,-2.42 ± 0.17
GAUGAGCAAUAUUACGCAGC,,-1.61 ± 0.41
GAUGAGCAAUAUUACGCCCU,-1.75 ± 0.15,-1.4 ± 0.17
GAUGAGCAAUAUUACGCCGG,,-2.46 ± 0.45
GAUGAGCAAUAUUACGCUAG,,-1.33 ± 0.39
GAUGAGCAAUAUUACGGGCG,-3.36 ± 0.39,-1.45 ± 0.26
